Data on 2 molecules can be found in publication PMC9606039, “Molecular analysis of a public cross-neutralizing antibody response to SARS-CoV-2” (Cell Reports, 2022).

For this assay, the target named is receptor-binding domain (RBD) (residues 319-541) of the SARS-CoV-2 spike (S) protein (SARS-CoV-2, ancestral Wuhan-Hu-1 …, UniProt P0DTC2).

B1: XGv265 (antibody, V domains shown)
VH: QITLKESGPTLVKPTQTLTLTCNFSGFSLNTYGVGVGWIRQPPGKALEWLALIYWDGDERYGPFFKNKVTIAKDTSKNQVVLTMTNMDPVDTATYYCARHLIPTIFDYWGQGTLVTVSS
VL: QSALTQPASVSGSPGQSITISCTGTSSDVGGSNYVSWYQHHPDRAPKLLIYEVTNRPSGVSNRFSGSKSANTASLTISGLQAEDEADYYCSSYTTTSTHILFGGGTKLTV
For B1, the binding result is “binds”.

B2: XG005 (antibody, V domains shown)
VH: QVTLRESGPTLVKPKQTLTLTCTFSGFSLSTPGGGVGWIRQPPGKALEWLALIYWDDDKRYSPSLKSSLTITKDTSKNQVVLTMTNMDPVDTATYYCARLTAADTIFDCWGQGTLVTVSS
VL: QSALTQPASVSGSPGLSITISCTATSSDVGAYNYVSWYQQHPGQAPKLMIYDVSKRPSGVSNRFSGSKSANTASLTISGLQAEDEADYYCSSYTTTSVVFGGGTKLTVL
With B2, the binding result was “binds”.
